Reference: patent US10766960 (dated 2020)
Residue numbers refer to the chain shown, from its start. Values joined by “and” are separate entries in the source; they are usually repeats but may differ in a detail not shown here. Equal entries are not always repeated.

What was measured:
Experiment in all cases: SPR
FcgRIIIa V = FcgRIIIa V (human, UniProt P08637)
FcgRIIb = target: T1, FcgRIIb (human, UniProt P31994)
T1 chain: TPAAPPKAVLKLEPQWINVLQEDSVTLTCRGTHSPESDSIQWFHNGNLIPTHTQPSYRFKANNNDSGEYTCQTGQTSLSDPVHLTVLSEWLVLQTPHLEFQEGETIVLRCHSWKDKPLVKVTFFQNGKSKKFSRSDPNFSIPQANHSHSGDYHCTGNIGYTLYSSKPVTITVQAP

FcgRIIa R = target: T2, FcgRIIa R (human, UniProt P12318)
T2 chain: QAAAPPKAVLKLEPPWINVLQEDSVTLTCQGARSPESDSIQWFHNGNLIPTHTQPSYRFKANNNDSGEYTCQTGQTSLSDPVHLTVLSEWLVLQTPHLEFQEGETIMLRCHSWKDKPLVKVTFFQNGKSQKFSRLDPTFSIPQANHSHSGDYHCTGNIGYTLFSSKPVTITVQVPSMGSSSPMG

FcgRIa = target: T3, FcgRIa (human, UniProt P12314)
T3 chain: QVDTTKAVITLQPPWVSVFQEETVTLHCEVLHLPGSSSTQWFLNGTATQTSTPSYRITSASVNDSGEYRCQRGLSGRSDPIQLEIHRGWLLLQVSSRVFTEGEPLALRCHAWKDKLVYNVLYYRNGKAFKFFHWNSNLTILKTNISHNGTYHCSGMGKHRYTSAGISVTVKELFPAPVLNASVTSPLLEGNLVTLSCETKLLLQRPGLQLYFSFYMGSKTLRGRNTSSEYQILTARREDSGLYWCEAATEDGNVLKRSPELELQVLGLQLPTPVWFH

FcgRIIIa F = FcgRIIIa F (human, UniProt P08637)
Chain of FcgRIIIa F (P08637 17-208): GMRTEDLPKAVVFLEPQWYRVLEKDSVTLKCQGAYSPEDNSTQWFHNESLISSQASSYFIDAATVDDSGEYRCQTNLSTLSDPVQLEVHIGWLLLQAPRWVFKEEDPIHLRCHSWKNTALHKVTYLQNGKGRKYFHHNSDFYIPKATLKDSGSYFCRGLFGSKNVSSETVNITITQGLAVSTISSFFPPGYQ

FcgRIIa H = target: T4, FcgRIIa H (human, UniProt P12318)
T4 chain: T2 chain with R134H

Chain of FcgRIIIa V (P08637 17-208 F176V): as the sequence (P08637 17-208) above, with F160V counted along it

B1: H240-FA020/H240-FB083/L73-k0 (antibody)
chain 1: QDQLVQSGAEVKKPGASVKVSCKASGFNIKDTYIQWVRQAPGQGLEWMGRIDPLRKQTKYREKFEGRVTITADTSTNTAYMELSSLRSEDTAVYYCVRSGREFDYWGQGTLVTVSSASTKGPSVFPLAPSSKSTSGGTAALGCLVKDYFPEPVTVSWNSGALTSGVHTFPAVLQSSGLYSLSSVVTVPSSSLGTKTYTCNVNHKPSNTKVDKKVEPKSCDKTHTCPPCPAPEYYWGPSVFLFPPKPKDTLMISRTPEVTCVVVDVSDEEPEVKFNWYVDGVEVHNAKTKPREEQYNATYRVVSVLTVLHQDWLNGKEYKCKVSNKALPAPIEKTISKAKGQPREPQVYTLPPSRKEKTKNQVSLTCLVKGFYPSDIAVEWESNGQPENNYKTTPPVLDSDGSFFLYSKLTVDKSRWQQGNVFSCSVMHEALHNRYTQKSLSLSP
chain 2: QDQLVQSGAEVKKPGASVKVSCKASGFNIKDTYIQWVRQAPGQGLEWMGRIDPLRKQTKYREKFEGRVTITADTSTNTAYMELSSLRSEDTAVYYCVRSGREFDYWGQGTLVTVSSASTKGPSVFPLAPSSKSTSESTAALGCLVEDYFPEPVTVSWNSGALTSGVHTFPAVLQSSGLYSLSSVVTVPSSNFGTQTYTCNVDHKPSNTKVDKTVEPKSCDKTHTCPPCPAPELLGGPSVFLFPPKPKDTLMISRTPEVTCVVVDVSHEEPEVQFNWYVDGVEVHNAETKPREEQYNSTYRVVSVLTVLHQDWLNGKEYKCKVSNDALPMPIEETISKAKGQPREPQVYTLPPSREEMTKNQVSLTCLVKGFYPSDIAVEWESNGQPENNYKTTPPVLDSDGSFFLYSKLTVDKSRWQQGNVFSCSVMHEALHNHYTQESLSLSP
chain 3: DIQMTQSPSSLSASVGDRVTITCRASQDIHKYIAWYQQKPGQAPRLLIQYTSTLQPGVPSRFSGSGSGTDYTFTISSLQPEDIATYYCLQYEQLRTFGGGTKVEIKRTVAAPSVFIFPPSDEQLKSGTASVVCLLNNFYPREAKVQWKVDNALQSGNSQESVTEQDSKDSTYSLSSTLTLSKADYEKHKVYACEVTHQGLSSPVTKSFNRGEC
Kd (FcgRIIIa V): 1.1 nM
Kd (FcgRIIb): 1000 nM
Kd (FcgRIIa R): 230 nM
Kd (FcgRIa): 0.12 nM
Kd (FcgRIIIa F): 3.4 nM
Kd (FcgRIIa H): 65 nM

B2: H240-FA009/H240-FB001/L73-k0 (antibody)
chain 1: B1 chain 1 with T198I, K357M
chain 2: B1 chain 2 with E136G, S137G, E146K, N191S, F192L, T198I, D202N, T213K, E287K
chain 3: B1 chain 3
Kd (FcgRIIIa V): 1.1 nM
Kd (FcgRIIb): 1300 nM
Kd (FcgRIIa R): 250 nM
Kd (FcgRIa): 0.17 nM
Kd (FcgRIIIa F): 4.3 nM
Kd (FcgRIIa H): 69 nM

B3: H240-FA024/H240-FB059/L73-k0 (antibody)
chain 1: B1 chain 1 with E271K
chain 2: B1 chain 2 with E136G, S137E, N191S, F192L, T198I, D202N, T213K
chain 3: B1 chain 3
Kd (FcgRIIIa V): 1.3 nM
Kd (FcgRIIb): 1600 nM
Kd (FcgRIIa R): 290 nM
Kd (FcgRIa): 0.089 nM
Kd (FcgRIIIa F): 4.4 nM
Kd (FcgRIIa H): 93 nM

B4: H240-FA021/H240-FB083/L73-k0 (antibody)
chain 1: B1 chain 1 with V396K
chain 2: B1 chain 2
chain 3: B1 chain 3
Kd (FcgRIIIa V): 1.4 nM
Kd (FcgRIIb): 1300 nM
Kd (FcgRIIa R): 240 nM
Kd (FcgRIa): 0.078 nM
Kd (FcgRIIIa F): 3.9 nM
Kd (FcgRIIa H): 69 nM

B5: H240-FA021/H240-FB082/L73-k0 (antibody)
chain 1: B1 chain 1 with V396K
chain 2: B1 chain 2 with E136G, S137E, N191S, F192L, T198I, D202N, T213K, N383E
chain 3: B1 chain 3
Kd (FcgRIIIa V): 1.5 nM
Kd (FcgRIIb): 1600 nM
Kd (FcgRIIa R): 230 nM
Kd (FcgRIa): 0.06 nM
Kd (FcgRIIIa F): 4.2 nM
Kd (FcgRIIa H): 77 nM

B6: H240-FA009/H240-FB033/L73-k0 (antibody)
chain 1: B1 chain 1 with T198I, K357M
chain 2: B1 chain 2 with E136G, S137E, E146K, N191S, F192L, T198I, D202N, T213K, E287K
chain 3: B1 chain 3
Kd (FcgRIIIa V): 1 nM
Kd (FcgRIIb): 1600 nM
Kd (FcgRIIa R): 310 nM
Kd (FcgRIa): 0.12 nM
Kd (FcgRIIIa F): 3.4 nM
Kd (FcgRIIa H): 80 nM

B7: H240-FA024/H240-FB064/L73-k0 (antibody)
chain 1: B1 chain 1 with E271K
chain 2: B1 chain 2 with E146K, E287K
chain 3: B1 chain 3
Kd (FcgRIIIa V): 1.3 nM
Kd (FcgRIIb): 1900 nM
Kd (FcgRIIa R): 330 nM
Kd (FcgRIa): 0.095 nM
Kd (FcgRIIIa F): 4.7 nM
Kd (FcgRIIa H): 110 nM

B8: H240-FA024/H240-FB082/L73-k0 (antibody)
chain 1: B1 chain 1 with E271K
chain 2: B1 chain 2 with E136G, S137E, N191S, F192L, T198I, D202N, T213K, N383E
chain 3: B1 chain 3
Kd (FcgRIIIa V): 1.3 nM
Kd (FcgRIIb): 1500 nM
Kd (FcgRIIa R): 240 nM
Kd (FcgRIa): 0.13 nM
Kd (FcgRIIIa F): 4.6 nM
Kd (FcgRIIa H): 80 nM

B9: H240-FA030/H240-FB082/L73-k0 (antibody)
chain 1: B1 chain 1 with E271K, K357M
chain 2: B1 chain 2 with E136G, S137E, N191S, F192L, T198I, D202N, T213K, N383E
chain 3: B1 chain 3
Kd (FcgRIIIa V): 1.3 nM
Kd (FcgRIIb): 1900 nM
Kd (FcgRIIa R): 300 nM
Kd (FcgRIa): 0.092 nM
Kd (FcgRIIIa F): 4.3 nM
Kd (FcgRIIa H): 88 nM

B10: H240-FA030/H240-FB084/L73-k0 (antibody)
chain 1: B1 chain 1 with E271K, K357M
chain 2: B1 chain 2 with N383E
chain 3: B1 chain 3
Kd (FcgRIIIa V): 1.3 nM
Kd (FcgRIIb): 2500 nM
Kd (FcgRIIa R): 270 nM
Kd (FcgRIa): 0.12 nM
Kd (FcgRIIIa F): 4.2 nM
Kd (FcgRIIa H): 88 nM

B11: H240-FA009/H240-FB047/L73-k0 (antibody)
chain 1: B1 chain 1 with T198I, K357M
chain 2: B1 chain 2 with E136G, S137G, E146K, N191S, F192L, T198I, D202N, T213K, E287K, N383E
chain 3: B1 chain 3
Kd (FcgRIIIa V): 1.1 nM
Kd (FcgRIIb): 1700 nM
Kd (FcgRIIa R): 270 nM
Kd (FcgRIa): 0.05 nM
Kd (FcgRIIIa F): 4.4 nM
Kd (FcgRIIa H): 74 nM

B12: H240-FA009/H240-FB016/L73-k0 (antibody)
chain 1: B1 chain 1 with T198I, K357M
chain 2: B1 chain 2 with E136G, S137G, E146K, N191S, F192L, T198I, T213K, E287K
chain 3: B1 chain 3
Kd (FcgRIIIa V): 1 nM
Kd (FcgRIIb): 1400 nM
Kd (FcgRIIa R): 250 nM
Kd (FcgRIa): 0.13 nM
Kd (FcgRIIIa F): 4.4 nM
Kd (FcgRIIa H): 70 nM

B13: H240-FA021/H240-FB084/L73-k0 (antibody)
chain 1: B1 chain 1 with V396K
chain 2: B1 chain 2 with N383E
chain 3: B1 chain 3
Kd (FcgRIIIa V): 1.3 nM
Kd (FcgRIIb): 1300 nM
Kd (FcgRIIa R): 230 nM
Kd (FcgRIa): 0.033 nM
Kd (FcgRIIIa F): 3.3 nM
Kd (FcgRIIa H): 69 nM

B14: H240-FA021/H240-FB059/L73-k0 (antibody)
chain 1: B1 chain 1 with V396K
chain 2: B1 chain 2 with E136G, S137E, N191S, F192L, T198I, D202N, T213K
chain 3: B1 chain 3
Kd (FcgRIIIa V): 1.7 nM
Kd (FcgRIIb): 1300 nM
Kd (FcgRIIa R): 280 nM
Kd (FcgRIa): 0.069 nM
Kd (FcgRIIIa F): 4.4 nM
Kd (FcgRIIa H): 92 nM

B15: H240-FA024/H240-FB065/L73-k0 (antibody)
chain 1: B1 chain 1 with E271K
chain 2: B1 chain 2 with E146K
chain 3: B1 chain 3
Kd (FcgRIIIa V): 1.4 nM
Kd (FcgRIIb): 1700 nM
Kd (FcgRIIa R): 300 nM
Kd (FcgRIa): 0.15 nM
Kd (FcgRIIIa F): 5 nM
Kd (FcgRIIa H): 95 nM

B16: H240-FA030/H240-FB059/L73-k0 (antibody)
chain 1: B1 chain 1 with E271K, K357M
chain 2: B1 chain 2 with E136G, S137E, N191S, F192L, T198I, D202N, T213K
chain 3: B1 chain 3
Kd (FcgRIIIa V): 1.2 nM and 1.4 nM
Kd (FcgRIIb): 1500 nM
Kd (FcgRIIa R): 260 nM and 250 nM
Kd (FcgRIa): 0.082 nM and 0.12 nM
Kd (FcgRIIIa F): 3.9 nM and 4.8 nM
Kd (FcgRIIa H): 85 nM
